The results in this text go back to patent US20210388081A1 (Memorial Sloan Kettering, published 2021).

One experiment has as its target SLAMF9 protein (UniProt Q96A28 19-236, limits assumed). Kind of experiment: phage clone on SLAMF9 protein.
In experiment [1] the target is T1, FcRL2, overexpressed on 3T3 cells (UniProt Q96LA5 20-508, limits assumed).
T1 construct: whole, on cells
T1 sequence (looked up): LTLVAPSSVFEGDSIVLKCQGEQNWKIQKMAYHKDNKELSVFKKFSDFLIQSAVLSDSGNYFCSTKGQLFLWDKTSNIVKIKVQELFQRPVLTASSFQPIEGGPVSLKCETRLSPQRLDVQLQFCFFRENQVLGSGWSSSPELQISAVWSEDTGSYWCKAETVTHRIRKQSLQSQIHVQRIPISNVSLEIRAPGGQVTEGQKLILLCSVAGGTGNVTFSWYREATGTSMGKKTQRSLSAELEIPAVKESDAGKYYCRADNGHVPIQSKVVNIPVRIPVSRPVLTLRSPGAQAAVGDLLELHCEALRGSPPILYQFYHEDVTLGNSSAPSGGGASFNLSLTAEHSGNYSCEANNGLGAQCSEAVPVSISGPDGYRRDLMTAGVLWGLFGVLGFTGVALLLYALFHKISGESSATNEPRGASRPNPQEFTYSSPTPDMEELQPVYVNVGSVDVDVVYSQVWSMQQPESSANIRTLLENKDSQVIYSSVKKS
Kind of experiment: phage clone on 3T3-FcRL2 cells.

Experiment [2] concerns the target T2, Fc Receptor-like 5 (FcRL5), full length, overexpressed on 3T3 or Raji cells (human, UniProt Q96RD9 16-977).
T2 construct: also called 3T3-FcRL5
T2 sequence: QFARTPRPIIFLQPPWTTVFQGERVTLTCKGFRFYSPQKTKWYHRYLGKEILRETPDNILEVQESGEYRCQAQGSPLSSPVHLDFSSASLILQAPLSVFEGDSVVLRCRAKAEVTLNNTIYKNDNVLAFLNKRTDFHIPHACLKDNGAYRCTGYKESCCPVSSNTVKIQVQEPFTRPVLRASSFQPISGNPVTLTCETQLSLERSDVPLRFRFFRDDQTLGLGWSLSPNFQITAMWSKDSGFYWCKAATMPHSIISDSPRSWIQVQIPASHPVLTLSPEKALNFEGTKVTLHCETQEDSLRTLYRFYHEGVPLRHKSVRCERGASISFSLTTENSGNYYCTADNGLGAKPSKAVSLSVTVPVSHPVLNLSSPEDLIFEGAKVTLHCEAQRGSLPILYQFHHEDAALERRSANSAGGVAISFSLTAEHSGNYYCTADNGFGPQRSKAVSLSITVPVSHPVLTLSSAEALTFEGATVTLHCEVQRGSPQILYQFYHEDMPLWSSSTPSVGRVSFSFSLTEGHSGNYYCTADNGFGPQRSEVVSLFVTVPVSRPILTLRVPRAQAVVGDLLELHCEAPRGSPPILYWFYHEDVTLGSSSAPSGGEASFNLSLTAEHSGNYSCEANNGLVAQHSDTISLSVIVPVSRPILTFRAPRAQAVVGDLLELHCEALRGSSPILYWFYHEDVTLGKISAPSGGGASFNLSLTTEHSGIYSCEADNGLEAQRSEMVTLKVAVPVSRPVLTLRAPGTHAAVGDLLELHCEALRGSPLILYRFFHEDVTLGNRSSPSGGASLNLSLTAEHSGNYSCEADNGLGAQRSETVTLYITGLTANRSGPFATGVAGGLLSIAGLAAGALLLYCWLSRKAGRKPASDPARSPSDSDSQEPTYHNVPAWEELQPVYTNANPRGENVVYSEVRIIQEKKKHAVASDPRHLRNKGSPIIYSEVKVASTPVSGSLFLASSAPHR
Kind of experiment: phage clone screening on cells. The method in brief:
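scFv phage clones were incubated with live 3T3 cells overexpressing full-length FcRL5, then detected with mouse anti-M13 mAb and PE-anti-mouse Ig by flow cytometry. 3T3 cells expressing FcRL1, 2, 3, 4 or 6 served as negative-control targets.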

The target of experiment [3] is T3, FcRL6, overexpressed on 3T3 cells (UniProt Q6DN72 20-434, limits assumed).
T3 construct: whole, on cells
T3 sequence (looked up): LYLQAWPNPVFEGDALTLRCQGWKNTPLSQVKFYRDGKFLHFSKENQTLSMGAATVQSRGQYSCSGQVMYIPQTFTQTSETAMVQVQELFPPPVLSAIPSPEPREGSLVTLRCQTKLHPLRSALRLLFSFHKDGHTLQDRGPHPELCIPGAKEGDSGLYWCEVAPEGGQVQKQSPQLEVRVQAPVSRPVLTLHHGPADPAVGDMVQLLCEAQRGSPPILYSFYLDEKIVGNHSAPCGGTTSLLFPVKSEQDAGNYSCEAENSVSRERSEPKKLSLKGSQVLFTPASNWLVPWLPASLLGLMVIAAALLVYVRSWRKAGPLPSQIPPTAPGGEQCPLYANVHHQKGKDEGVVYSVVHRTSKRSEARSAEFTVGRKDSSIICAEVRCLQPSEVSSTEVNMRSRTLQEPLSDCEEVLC
Kind of experiment: phage clone on 3T3-FcRL6 cells.

The target in experiment [4] is T4, FcRL3, overexpressed on 3T3 cells (UniProt Q96P31 18-734, limits assumed).
T4 construct: whole, on cells
T4 sequence (looked up): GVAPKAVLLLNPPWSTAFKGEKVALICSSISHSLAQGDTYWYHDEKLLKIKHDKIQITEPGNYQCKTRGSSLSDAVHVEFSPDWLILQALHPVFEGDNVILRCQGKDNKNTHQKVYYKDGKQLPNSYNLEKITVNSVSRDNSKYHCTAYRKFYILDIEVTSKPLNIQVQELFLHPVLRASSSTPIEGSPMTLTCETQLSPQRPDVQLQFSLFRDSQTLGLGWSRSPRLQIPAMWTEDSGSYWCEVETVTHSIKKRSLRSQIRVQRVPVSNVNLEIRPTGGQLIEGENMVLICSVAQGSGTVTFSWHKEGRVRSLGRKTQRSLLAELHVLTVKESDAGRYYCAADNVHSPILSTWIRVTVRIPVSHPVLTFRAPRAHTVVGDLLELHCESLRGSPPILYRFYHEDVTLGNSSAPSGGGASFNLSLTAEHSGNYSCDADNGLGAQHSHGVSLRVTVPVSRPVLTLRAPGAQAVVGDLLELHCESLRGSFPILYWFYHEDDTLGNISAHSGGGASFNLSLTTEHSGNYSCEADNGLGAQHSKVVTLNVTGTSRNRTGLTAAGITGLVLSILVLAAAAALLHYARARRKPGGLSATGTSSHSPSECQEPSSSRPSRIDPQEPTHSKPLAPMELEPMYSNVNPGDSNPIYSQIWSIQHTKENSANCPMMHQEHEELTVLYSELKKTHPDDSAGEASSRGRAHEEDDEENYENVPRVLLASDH
Kind of experiment: phage clone on 3T3-FcRL3 cells.

SLAMF9 protein, sequence (Q96A28 19-236 limits assumed): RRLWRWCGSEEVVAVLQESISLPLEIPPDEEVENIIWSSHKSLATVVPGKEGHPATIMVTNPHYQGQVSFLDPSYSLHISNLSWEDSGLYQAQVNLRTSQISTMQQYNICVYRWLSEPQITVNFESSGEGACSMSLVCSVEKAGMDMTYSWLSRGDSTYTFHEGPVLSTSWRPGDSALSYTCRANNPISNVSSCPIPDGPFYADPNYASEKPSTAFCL

B1: ET200-032 (scFv)
scFv: LPVLTQPPSASGTPGQRVTISCSGSSSNVGSYTVNWYRQLPGTAPTLLIYNNNQRPSGVPDRFSDSKSGTSASLTISGLQPEDEADYYCAAWDDRLGGYVFGTGTKVTVLGSRGGGGSGGGGSGGGGSLEMAEVQLVQSGAEVKKPGESLKISCKGSGYSFTNYWIGWVRQMPGKGLEWMGIIYPGDSDTRYSPSFQGQVTISADKSISTAYLQWSSLKASDTAMYYCARSTGSSHMSDEWGQGTLVTVSSTSGQAGQHHHHHHGAYPYDVPDYAS
notes: screened as phage clone; entry is VL-linker-VH-His tag-HA tag
B1: the binding result in the experiment with SLAMF9 protein was “no binding”; in experiment [1], “no binding”; in experiment [2], “binds”; in experiment [3], “no binding”; in experiment [4], “no binding”.

B2: ET200-038 (scFv)
scFv: QSVLTQPPSVSGAPGQRVTISCTGSSSNIGAGFDVHWYQLLPGTAPKLLIYANSNRPSGVPDRFSGSKSGTSASLAITGLLAEDEADYYCQSYDSSLSGVVFGGGTKLTVLGSRGGGGSGGGGSGGGGSLEMAQVQLVQSGAEVKKPGSSVKVSCKASGGTFSSYAISWVRQAPGQGLEWMGGIIPIFGTANYAQKFQGRVTITADESTSTAYMELSSLRSEDTAVYYCARGASFDRHDNWGQGTLVTVSSTSGQAGQHHHHHHGAYPYDVPDYAS
notes: as for B1
Turning to B2, the binding result in the experiment with SLAMF9 protein is “no binding”; in experiment [1], “no binding”; in experiment [2] it was “binds”; in experiment [3], “no binding”; in experiment [4], “no binding”.

B3: ET200-033 (scFv)
scFv: NFMLTQPHSVSESPGKTVTISCTGSSGSIASNYVQWYQQRPGSAPTTVIYEDNQRPSGVPDRFSGSIDSSSNSASLTISGLKTEDEADYYCQSYDSSNHWVFGGGTKLTVLGSRGGGGSGGGGSGGGGSLEMAQVQLQQWGAGLLKPSETLSLTCAVYGGSFSGYYWSWIRQPPGKGLEWIGEITHSGRSNYNPSLKSRVTISVDTSKNQFSLKLSSVTAADTAVYYCARSSIMSDYWGQGTLVTVSSTSGQAGQHHHHHHGAYPYDVPDYAS
notes: as for B1
On to B3, for which the binding result is given as “no binding” with SLAMF9 protein; “no binding” in experiment [1]; “binds” in experiment [2]; “no binding” in experiment [3]; “no binding” in experiment [4].

B4: ET200-031 (scFv)
scFv: SYVLTQPPSVSVAPGKTARITCGGNNIGSKSVHWYQQKPGQAPVLVIYYDSDRPSGIPERFSGSNSGNTATLTISRVEAGDEADYYCQVWDSSSDYVFGTGTKVTVLGSRGGGGSGGGGSGGGGSLEMAEVQLVETGGGLVKPGGSLRLSCAASGFTVSDYYMSWIRQAPGKGLEWISYISGSGNSIYYADSVKGRFTISRDNAKNSLDLQMTSLRAEDTAVYYCARSTKFDYWGQGTLVTVSSTSGQAGQHHHHHHGAYPYDVPDYAS
notes: screened as phage clone; entry is VL-linker-VH-His tag-HA tag; also called ET200-31
On to B4, for which the binding result was “no binding” with SLAMF9 protein; “no binding” in experiment [1]; “binds” in experiment [2]; “no binding” in experiment [3]; “no binding” in experiment [4].

B5: ET200-034 (scFv)
scFv: QSVLTQPPSVSGAPGQRVTISCTGSTSNIGAGYDVHWYQQLPGTAPKLLINNNRNRPSGVPDRFSGSKSGTSATLGITGLQTGDEADYYCGTWDGSLTGAVFGGGTKLTVLGSRGGGGSGGGGSGGGGSLEMAEVQLVQSGAEVKKPGSSVKVSCKASGGTFSSYAISWVRQAPGQGLEWMGGIIPIFGTANYAQKFQGRVTITADESTSTAYMELSSLRSEDTAVYYCARGSALDHYDRWGQGTLVTVSSTSGQAGQHHHHHHGAYPYDVPDYAS
notes: as for B1
As to B5, the binding result is “no binding” with SLAMF9 protein; “no binding” in experiment [1]; “binds” in experiment [2]; “no binding” in experiment [3]; “no binding” in experiment [4].
